Laboratory results as given in article PMC3229523, “Identification of Lactoferricin B Intracellular Targets Using an Escherichia coli Proteome Chip” (PLoS ONE, 2011).
Ends that are not written are not given here. * marks the point of attachment. Biotin = O=C1N[C@H]2[C@H](CS[C@H]2CCCCC(=O)*)N1

Columns and labels:
Assay in all cases: peptide or protein array; E. coli proteome chip: purified His-tagged proteins printed in duplicate on Fullmoon slides, blocked with 1% BSA; 10 nM N-terminal biotinylated LfcinB with 1% BSA, room temperature, 1 h; detected with DyLight 649-labeled streptavidin, ratio to DyLight 549-labeled anti-His antibody; ProCAT normalisation, local cut-off; triplicate chips
Settings in all cases: both partners purified
YcgW = target: T1, YcgW (E. coli K-12, UniProt P75987 1-107)
T1 construct: YcgW, E. coli K-12
T1 sequence (looked up): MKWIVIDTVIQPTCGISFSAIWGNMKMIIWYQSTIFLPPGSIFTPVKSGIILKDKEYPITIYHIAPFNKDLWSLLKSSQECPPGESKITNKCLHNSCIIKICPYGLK

YbgE = target: T2, YbgE (E. coli K-12, UniProt P0AAV0 1-97)
T2 construct: YbgE, E. coli K-12
T2 sequence (looked up): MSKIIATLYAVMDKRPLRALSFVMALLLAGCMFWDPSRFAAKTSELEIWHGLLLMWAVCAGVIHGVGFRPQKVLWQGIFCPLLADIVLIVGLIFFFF

AdiY = target: T3, AdiY (E. coli K-12, UniProt P33234 1-253)
T3 construct: AdiY, E. coli K-12
T3 sequence (looked up): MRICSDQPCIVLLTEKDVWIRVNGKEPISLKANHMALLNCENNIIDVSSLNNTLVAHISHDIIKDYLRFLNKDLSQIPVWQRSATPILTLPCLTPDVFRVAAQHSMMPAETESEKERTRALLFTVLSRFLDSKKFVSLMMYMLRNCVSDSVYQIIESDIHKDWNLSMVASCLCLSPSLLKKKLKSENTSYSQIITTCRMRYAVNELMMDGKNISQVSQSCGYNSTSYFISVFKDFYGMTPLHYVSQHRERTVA

YbaQ = target: T4, YbaQ (E. coli K-12, UniProt P0A9T6 1-113)
T4 construct: YbaQ, E. coli K-12
T4 sequence (looked up): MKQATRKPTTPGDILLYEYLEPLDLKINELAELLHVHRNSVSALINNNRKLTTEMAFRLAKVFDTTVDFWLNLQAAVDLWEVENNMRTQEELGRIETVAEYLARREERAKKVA

adenylate cyclase CyaA = target: T5, adenylate cyclase CyaA (E. coli K-12, UniProt P00936 1-848)
T5 construct: CyaA, adenylate cyclase, E. coli K-12
T5 sequence (looked up): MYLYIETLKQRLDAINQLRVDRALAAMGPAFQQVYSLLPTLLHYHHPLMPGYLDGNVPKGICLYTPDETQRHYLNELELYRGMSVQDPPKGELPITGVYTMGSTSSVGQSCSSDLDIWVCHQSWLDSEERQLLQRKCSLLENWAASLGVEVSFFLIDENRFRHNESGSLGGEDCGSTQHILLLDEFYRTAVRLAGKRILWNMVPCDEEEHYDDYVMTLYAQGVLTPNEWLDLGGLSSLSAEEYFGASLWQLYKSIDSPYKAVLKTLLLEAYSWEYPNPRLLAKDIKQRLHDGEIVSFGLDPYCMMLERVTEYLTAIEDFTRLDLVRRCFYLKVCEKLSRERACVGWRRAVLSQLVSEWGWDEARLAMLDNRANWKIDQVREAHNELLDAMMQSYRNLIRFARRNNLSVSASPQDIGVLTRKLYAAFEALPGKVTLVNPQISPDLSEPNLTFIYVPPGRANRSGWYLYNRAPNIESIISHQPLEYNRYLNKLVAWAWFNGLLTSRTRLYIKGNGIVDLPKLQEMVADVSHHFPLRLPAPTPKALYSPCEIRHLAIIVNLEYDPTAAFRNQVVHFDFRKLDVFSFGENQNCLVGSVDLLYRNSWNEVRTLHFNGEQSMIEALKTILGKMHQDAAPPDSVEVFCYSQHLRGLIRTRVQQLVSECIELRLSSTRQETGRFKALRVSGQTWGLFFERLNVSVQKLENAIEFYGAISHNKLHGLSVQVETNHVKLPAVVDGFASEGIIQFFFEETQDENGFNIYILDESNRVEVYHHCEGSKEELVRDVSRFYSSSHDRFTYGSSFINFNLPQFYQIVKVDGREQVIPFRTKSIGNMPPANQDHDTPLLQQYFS

YhiF = target: T6, YhiF (E. coli K-12, UniProt P37195 1-176)
T6 construct: YhiF, E. coli K-12
T6 sequence (looked up): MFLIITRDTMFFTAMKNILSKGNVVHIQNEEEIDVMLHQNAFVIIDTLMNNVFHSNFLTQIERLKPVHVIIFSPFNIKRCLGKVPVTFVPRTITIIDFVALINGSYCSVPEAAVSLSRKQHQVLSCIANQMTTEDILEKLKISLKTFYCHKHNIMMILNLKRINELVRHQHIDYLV

Measured: binding result

B1: N-terminal biotinylated Lactoferricin B (peptide, UniProt P24627 36-60, looked up)
peptide: Biotin-FKCRRWQWRMKKLGAPSITCVRRAF
modifications: ends and bridges not checked
notes: lactoferricin B (LfcinB), cationic antimicrobial peptide of 25 amino acids; also called biotinylated LfcinB; biotin-labeled LfcinB; source: bought: Kelowna Inc
binds: YcgW | YbgE | AdiY | YbaQ | adenylate cyclase CyaA | YhiF
